The chains are these.
B1: G99H, Q93D82 (parent)
chain: MSTAIVTNVKHFGGMGSALRLSEAGHTVACHDESFKQKDELEAFAETYPQLKPMSEQEPAELIEAVTSAYGQVDVLVSNDIFAPEFQPIDKYAVEDYRGAVEALQIRPFALVNAVASQMKKRKSGHIIFITSATPFGPWKELSTYTSARAGACTLANALSKELGEYNIPVFAIGPNYLHSEDSPYFYPTEPWKTNPEHVAHVKKVTALQRLGTQKELGELVAFLASGSCDYLTGQVFWLAGGFPMIERWPGMPE

In the data set the parent is B1. Particulars: Rhizobium radiobacter; pH 7.7; Thermal; CD; Phosphate 5mM; structure 1PWX; whole UniProt chain shown.

This note sets out measurements from FireProtDB (doi:10.1093/protein/gzw068).

G99H: the Tm (as a rule, the temperature at which the thermal transition is half complete) came to 65 °C and the “change of melting temperature, mutant - wild type (higher = more stable)” value (shortened to “change of melting temperature, mutant”) was 0 °C.
As to G99D, the Tm was determined as 65 °C and the “change of melting temperature, mutant” value is 0 °C.
The matching figures for G99R: 55.5 °C and -9.5 °C.
With G99A, the Tm was found to be 66 °C and the “change of melting temperature, mutant” value stood at 1 °C.
The matching figures for V199K: 66.5 °C and 1.5 °C.
The matching figures for A200Y: 62.5 °C and -2.5 °C.
Turning to K161F, the Tm was 64 °C and the “change of melting temperature, mutant” value is -1 °C.
The matching figures for V236I: 66.5 °C and 1.5 °C.
As to D80V, the Tm was 64 °C and the “change of melting temperature, mutant” value is -1 °C.
For D80E, the Tm was 60 °C and the “change of melting temperature, mutant” value was -5 °C.
Regarding K91Q, the Tm came out at 61 °C and the “change of melting temperature, mutant” value is -4 °C.
Regarding A93N, the Tm stood at 69 °C and the “change of melting temperature, mutant” value came to 4 °C.
As to A93K, the Tm stood at 70.5 °C and the “change of melting temperature, mutant” value is 5.5 °C.
The matching figures for A93T: 69.5 °C and 4.5 °C.
Regarding F136W, the Tm was 60.5 °C and the “change of melting temperature, mutant” value is -4.5 °C.
In the case of V205L, the Tm turned out to be 63.5 °C and the “change of melting temperature, mutant” value is -1.5 °C.
T154L: the Tm was determined as 58.5 °C and the “change of melting temperature, mutant” value was -6.5 °C.
With T154I, the Tm was 62 °C and the “change of melting temperature, mutant” value was -3 °C.
Consider T154V, for which the Tm turned out to be 62 °C and the “change of melting temperature, mutant” value was -3 °C.
The matching figures for Q209H: 58 °C and -7 °C.
The matching figures for R98L: 65 °C and 0 °C.
In the case of R98I, the Tm was found to be 64.5 °C and the “change of melting temperature, mutant” value is -0.5 °C.
For the variant S160A, the Tm turned out to be 64.5 °C and the “change of melting temperature, mutant” value was -0.5 °C.
Take E85Y: the Tm is 64.5 °C and the “change of melting temperature, mutant” value was -0.5 °C.
On to E247P, for which the Tm is 66 °C and the “change of melting temperature, mutant” value was determined as 1 °C.
In the case of E247Y, the Tm came out at 63 °C and the “change of melting temperature, mutant” value is -2 °C.
A158V: the melting temperature (Tm) is 71 °C and the “change of melting temperature, mutant” value stood at 6 °C.
The matching figures for S228R: 64.5 °C and -0.5 °C.
The matching figures for S228K: 64.5 °C and -0.5 °C.
In the case of A69K, the Tm is 63.5 °C and the “change of melting temperature, mutant” value is -1.5 °C.
Take A69R: the Tm stood at 65.5 °C and the “change of melting temperature, mutant” value is 0.5 °C.
Take A69M: the Tm was determined as 62.5 °C and the “change of melting temperature, mutant” value is -2.5 °C.
Turning to A69L, the melting temperature (Tm) came to 64.5 °C and the “change of melting temperature, mutant” value was -0.5 °C.
The matching figures for E219N: 63.5 °C and -1.5 °C.
The matching figures for H198M: 55 °C and -10 °C.
Take H198Y: the Tm was 62.5 °C and the “change of melting temperature, mutant” value was -2.5 °C.
Turning to P253G, the Tm was determined as 64.5 °C and the “change of melting temperature, mutant” value was -0.5 °C.
The matching figures for P253S: 62.5 °C and -2.5 °C.
Consider K140S, for which the Tm turned out to be 62.5 °C and the “change of melting temperature, mutant” value was -2.5 °C.
In the case of K140P, the Tm turned out to be 54.5 °C and the “change of melting temperature, mutant” value was -10.5 °C.
On to S143V, for which the Tm worked out at 59.5 °C and the “change of melting temperature, mutant” value is -5.5 °C.
For N195V, the Tm is 59 °C and the “change of melting temperature, mutant” value was -6 °C.
For the variant N195H, the Tm was 64.5 °C and the “change of melting temperature, mutant” value is -0.5 °C.
Regarding R107Q, the Tm came to 65 °C and the “change of melting temperature, mutant” value amounted to 0 °C.
In the case of K123H, the Tm was found to be 65.5 °C and the “change of melting temperature, mutant” value worked out at 0.5 °C.
The matching figures for C153N: 78.5 °C and 13.5 °C.
As to C153I, the Tm is 60 °C and the “change of melting temperature, mutant” value was -5 °C.
C153H: the Tm was 53.5 °C and the “change of melting temperature, mutant” value was -11.5 °C.
The matching figures for C153V: 50.5 °C and -14.5 °C.
With C153L, the Tm was determined as 63 °C and the “change of melting temperature, mutant” value was -2 °C.
A83N: the Tm was found to be 63 °C and the “change of melting temperature, mutant” value is -2 °C.
In the case of A83Q, the Tm amounted to 65.5 °C and the “change of melting temperature, mutant” value was 0.5 °C.
For A83M, the Tm stood at 65.5 °C and the “change of melting temperature, mutant” value was found to be 0.5 °C.
Take N113H: the Tm was determined as 63 °C and the “change of melting temperature, mutant” value is -2 °C.
As to N113Q, the Tm came to 61.5 °C and the “change of melting temperature, mutant” value was -3.5 °C.
The matching figures for Q87R: 68.5 °C and 3.5 °C.
As to Q87L, the Tm came to 62.5 °C and the “change of melting temperature, mutant” value was -2.5 °C.
For the variant P244A, the Tm is 67 °C and the “change of melting temperature, mutant” value stood at 2 °C.
For D230N, the Tm is 62 °C and the “change of melting temperature, mutant” value was -3 °C.
Take V77I: the Tm amounted to 64 °C and the “change of melting temperature, mutant” value was -1 °C.
Take H126Y: the Tm came out at 63.5 °C and the “change of melting temperature, mutant” value was -1.5 °C.
As for H126V, the Tm stood at 64.5 °C and the “change of melting temperature, mutant” value was -0.5 °C.
Turning to V75I, the Tm was 65 °C and the “change of melting temperature, mutant” value was found to be 0 °C.
Turning to K193L, the Tm stood at 65 °C and the “change of melting temperature, mutant” value was 0 °C.
On to N157F, for which the Tm amounted to 64 °C and the “change of melting temperature, mutant” value was -1 °C.
As for N157W, the Tm turned out to be 56 °C and the “change of melting temperature, mutant” value was -9 °C.
As for N157R, the Tm is 60 °C and the “change of melting temperature, mutant” value was -5 °C.
The matching figures for F86W: 64.5 °C and -0.5 °C.
The matching figures for T134V: 68 °C and 3 °C.
In the case of T134I, the Tm was determined as 63.5 °C and the “change of melting temperature, mutant” value is -1.5 °C.
Turning to T134W, the Tm came to 64 °C and the “change of melting temperature, mutant” value was -1 °C.
As to F82W, the Tm was 59 °C and the “change of melting temperature, mutant” value is -6 °C.
Take A103Y: the Tm worked out at 60.5 °C and the “change of melting temperature, mutant” value is -4.5 °C.
A103Q: the Tm came to 61 °C and the “change of melting temperature, mutant” value was -4 °C.
In the case of T213D, the Tm was 62 °C and the “change of melting temperature, mutant” value is -3 °C.
On to T213N, for which the Tm stood at 61.5 °C and the “change of melting temperature, mutant” value is -3.5 °C.
With L111W, the Tm was found to be 57 °C and the “change of melting temperature, mutant” value was -8 °C.
As for D182F, the Tm amounted to 63 °C and the “change of melting temperature, mutant” value was -2 °C.
Regarding V94L, the Tm was 63.5 °C and the “change of melting temperature, mutant” value is -1.5 °C.
E165A: the Tm was found to be 65.5 °C and the “change of melting temperature, mutant” value amounted to 0.5 °C.
The matching figures for E165P: 57.5 °C and -7.5 °C.
For the variant D96H, the Tm is 56 °C and the “change of melting temperature, mutant” value is -9 °C.
On to T144I, for which the Tm was found to be 57 °C and the “change of melting temperature, mutant” value is -8 °C.
E197K: the melting temperature (Tm) came out at 67.5 °C and the “change of melting temperature, mutant” value was 2.5 °C.
The matching figures for T194Q: 61 °C and -4 °C.
As to E190L, the Tm came to 65.5 °C and the “change of melting temperature, mutant” value worked out at 0.5 °C.
For the variant E190T, the Tm was 66.5 °C and the “change of melting temperature, mutant” value came out at 1.5 °C.
On to S117K, for which the Tm turned out to be 65 °C and the “change of melting temperature, mutant” value was 0 °C.
Turning to S117A, the Tm is 63.5 °C and the “change of melting temperature, mutant” value was -1.5 °C.
The matching figures for Y70F: 65.5 °C and 0.5 °C.
In the case of E141Q, the Tm amounted to 56 °C and the “change of melting temperature, mutant” value is -9 °C.
Turning to C229A, the Tm came out at 60.5 °C and the “change of melting temperature, mutant” value was -4.5 °C.
